The target of experiment [1] is T1, recombinant human ErbB2/Fc chimera (human, UniProt P04626 23-652).
T1 construct: bought from R&D Systems; also called rhErbB2-Fc; rhErb2-Fc; Fc part of the bought chimera not given
The experiment is described as follows: SPR Biacore 3000, periplasmic extract over immobilised rhErbB2-Fc.

The target in experiment [2] is T2, HER2 on SKBR3 cells (human, UniProt P04626 23-1255).
T2 construct: whole, on cells; also called ErbB2; HER2 p185 tyrosine kinase
The experiment is described as follows: FMAT on SKBR3 cells; competitor labeled Herceptin.

For experiment [3], the target named is T2, HER2 on SKBR3 cells. The experiment is described as follows: FMAT on SKBR3 cells, periplasmic extract; competitor biotinylated OT-Fab.
In experiment [4] the target is T2, HER2 on SKBR3 cells. The experiment is described as follows: cell-based or functional assay.
The target of experiment [5] is T2, HER2 on SKBR3 cells. The experiment is described as follows: FMAT on SKBR3 cells, periplasmic extract; competitor Alexa647-Herceptin.

Changes are numbered by the printed parent chain. A value given as a limit tells only on which side of the number the result lay.

B1: 2H3 (VHH)
VHH: EVQLVESGGGLVQPGGSLRLSCVASGFSLDDYGMTWVRQAPGKGLEWVSSINWSGTHTDYADSVKGRFTISRDNAKNTLFLQMNSLTPEDTAVYYCNQGWKIIPTDRRGHGTQVTVSS
notes: c-myc/His6-tagged
Regarding B1, the koff in experiment [1] turned out to be 0.00109 s⁻¹.

B2: 27A5-35GS-2D3 (bispecific antibody)
chain: EVQLVESGGGLVQAGGSLNLSCVASGIPFSTRTMAWYRQPPGNERDWVATIRSGAPVYADSVKGRFTVSRDNAKNTLYLQMNSLEPEDTATYYCWDVNGDIWGQGTPVTVSSGGGGSGGGGSGGGGSGGGGSGGGGSGGGGSGGGGSEVQLVESGGSLVQPGGSLRLSCAASGFTFDDYAMSWVRQVPGKGLEWVSSINWSGTHTDYADSVKGRFTISRNNANNTLYLQMNSLKSEDTAVYYCAKNWRDAGTTWFEKSGSAGQGTQVTVSS
notes: biparatopic Nanobody, 35GS linker; c-myc, His6-tagged
Turning to B2, the binding result in experiment [2] is listed as “binds”.

B3: 2A5-9GS-2A5 (VHH)
chain: EVQLVESGGGLVQPGGSLRLSCATSGFTFDDYAMTWVRQAPGKGLEWVSSINWSGTHTDYTDSVKGRFTISRNNANNTLYLQMNSLKSEDTAVYYCAKNWGDAGTTWFEKSGSAGQGTQVTVSSGGGGSGGGSEVQLVESGGGLVQPGGSLRLSCATSGFTFDDYAMTWVRQAPGKGLEWVSSINWSGTHTDYTDSVKGRFTISRNNANNTLYLQMNSLKSEDTAVYYCAKNWGDAGTTWFEKSGSAGQGTQVTVSS
notes: bivalent Nanobody, two VHH joined by a 9GS linker
With B3, the binding result in experiment [2] was “binds”.

B4: 2D3-9GS-2D3 (VHH)
chain: EVQLVESGGSLVQPGGSLRLSCAASGFTFDDYAMSWVRQVPGKGLEWVSSINWSGTHTDYADSVKGRFTISRNNANNTLYLQMNSLKSEDTAVYYCAKNWRDAGTTWFEKSGSAGQGTQVTVSSGGGGSGGGSEVQLVESGGSLVQPGGSLRLSCAASGFTFDDYAMSWVRQVPGKGLEWVSSINWSGTHTDYADSVKGRFTISRNNANNTLYLQMNSLKSEDTAVYYCAKNWRDAGTTWFEKSGSAGQGTQVTVSS
notes: as for B3
For B4, the binding result in experiment [2] was “binds”.

B5: 2A4-9GS-2A4 (VHH)
chain: EVQLVESGGGLVQPGGSLRLSCAASGFIFDDYAMSWVRQAPGKGLEWVSAINWSGSHRNYADSVKGRFTISRDNAKKTVYLQMNSLQSEDTAVYYCGTGWQSTTKNQGYWGQGTQVTVSSGGGGSGGGSEVQLVESGGGLVQPGGSLRLSCAASGFIFDDYAMSWVRQAPGKGLEWVSAINWSGSHRNYADSVKGRFTISRDNAKKTVYLQMNSLQSEDTAVYYCGTGWQSTTKNQGYWGQGTQVTVSS
notes: as for B3
As to B5, the binding result in experiment [2] is given as “binds”.

B6: 2C3-9GS-2C3 (VHH)
chain: EVQLVESGGGLVQPGGSLRLSCVASGFSLDDYGMTWVRQAPGKGLEWVSSINWSGTHTDYADSVKGRFTISRDNAKNTLFLQMNSLRSEDTAVYYCNQGWKIVPTDRTGHGTQVTVSSGGGGSGGGSEVQLVESGGGLVQPGGSLRLSCVASGFSLDDYGMTWVRQAPGKGLEWVSSINWSGTHTDYADSVKGRFTISRDNAKNTLFLQMNSLRSEDTAVYYCNQGWKIVPTDRTGHGTQVTVSS
notes: as for B3
For the molecule B6, the binding result in experiment [2] is listed as “binds”.

B7: 27H3-35GS-2D3 (other)
chain: EVQLVESGGSLVQPGGSLRLSCAASGFTFDDYAMTWVRQASGKGLEWVSSINWSGTHTDYTDSVKGRFTISRNNANNTLYLQMNSLKSEDTAVYYCAKNWGDAGTTWFEKSGSAGQGTQVTVSSGGGGSGGGGSGGGGSGGGGSGGGGSGGGGSGGGGSEVQLVESGGSLVQPGGSLRLSCAASGFTFDDYAMSWVRQVPGKGLEWVSSINWSGTHTDYADSVKGRFTISRNNANNTLYLQMNSLKSEDTAVYYCAKNWRDAGTTWFEKSGSAGQGTQVTVSS
notes: as for B2
For the molecule B7, the binding result in experiment [2] is recorded as “binds”.

B8: 47D5 (VHH)
VHH: KVQLVESGGGLVQPGGSLRLSCAASGSIFGFNDMAWYRQAPGKQRELVALISRVGVTSSADSVKGRFTISRVNAKDTVYLQMNSLKPEDTAVYYCYMDQRLDGSTLAYWGQGTQVTVSS
notes: c-myc/His6-tagged; also called 47A8
For the molecule B8, in experiment [3], the “% blocking of OT-Fab binding” value was over 85%.

B9: 2D3 (VHH)
VHH: EVQLVESGGSLVQPGGSLRLSCAASGFTFDDYAMSWVRQVPGKGLEWVSSINWSGTHTDYADSVKGRFTISRNNANNTLYLQMNSLKSEDTAVYYCAKNWRDAGTTWFEKSGSAGQGTQVTVSS
On to B9, for which the “inhibition of SKBR3 proliferation ([3H]-thymidine), 50 nM Nanobody” value in experiment [4] was about 30%.

B10: 13C12 (VHH)
VHH: B9 VHH with A24T, S35T, V40A, A61T, R101G
notes: c-myc/His6-tagged
Consider B10, for which, in experiment [5], the “% blocking of Herceptin binding” value is over 90%.

B11: 30D10-35GS-2D3 (bispecific antibody)
chain: EVQLVESGGGLVQAGGSLTLSCTASETTVRIRTMAWYRQPPGNQREWVATIGSNGFATYPDSVKGRFTISRDNAKNTVYLQMNSLKPEDTAVYYCRDINRDIWGQGSQVTVSSGGGGSGGGGSGGGGSGGGGSGGGGSGGGGSGGGGSEVQLVESGGSLVQPGGSLRLSCAASGFTFDDYAMSWVRQVPGKGLEWVSSINWSGTHTDYADSVKGRFTISRNNANNTLYLQMNSLKSEDTAVYYCAKNWRDAGTTWFEKSGSAGQGTQVTVSS
notes: as for B2
Take B11: the binding result in experiment [2] is “binds”.
